Laboratory results reported in patent US20120077730A1.

Target: human C5a receptor (C5aR) (human) (UniProt P21730)
Assay: cell-based or functional assay

UniProt P21730, sequence (P21730 whole entry): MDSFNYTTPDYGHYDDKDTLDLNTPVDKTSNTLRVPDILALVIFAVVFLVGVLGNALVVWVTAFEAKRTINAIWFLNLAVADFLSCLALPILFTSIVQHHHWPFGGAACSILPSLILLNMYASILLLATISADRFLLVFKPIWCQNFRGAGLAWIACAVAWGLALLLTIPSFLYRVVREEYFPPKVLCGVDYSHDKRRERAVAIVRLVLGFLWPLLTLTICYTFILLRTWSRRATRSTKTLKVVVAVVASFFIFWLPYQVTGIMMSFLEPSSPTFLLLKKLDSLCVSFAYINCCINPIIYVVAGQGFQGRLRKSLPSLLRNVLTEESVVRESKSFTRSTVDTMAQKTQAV

With “Wild-type (Wt) CHIPS1-121 (from UniProt A6QIG7 29-149)” the Chemotaxis IC50 was 0.1 µg/mL.
In the case of “CHIPS ΔN/C (CHIPS31-113) (from UniProt A6QIG7 59-141)”, the Chemotaxis IC50 is reported as 0.5 µg/mL.
Work on “CHIPS variant clone 376 (ADC-1004; CHIPS ΔN/C format) (from UniProt A6QIG7 31-113)” yielded a C5aR blocking activity relative to wt CHIPS1-121 (% of wt CHIPS1-121) of over 25 and a Chemotaxis IC50 of 0.5 µg/mL.
